Reference: doi:10.1101/702415 (bioRxiv, 2019)

Target: T1, Ups1 (S. cerevisiae, UniProt Q05776 1-175)
T1 sequence: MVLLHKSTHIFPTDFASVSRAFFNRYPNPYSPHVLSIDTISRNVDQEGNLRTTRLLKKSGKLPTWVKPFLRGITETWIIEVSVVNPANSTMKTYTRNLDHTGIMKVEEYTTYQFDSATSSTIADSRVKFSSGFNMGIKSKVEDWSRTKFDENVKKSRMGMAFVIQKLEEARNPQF
Assay: crystal structure

binding result: binds
B1: Mdm35 (natural protein)
chain: MGNIMSASFAPECTDLKTKYDSCFNEWYSEKFLKGKSVENECSKQWYAYTTCVNAALVKQGIKPALDEAREEAPFENGGKLKEVDK
